In IntAct's records for PubMed 24141193:

B1: Protein kinase doc (Escherichia phage P1), Q06259 (parent)
chain: MRHISPEELIALHDANISRYGGLPGMSDPGRAEAIIGRVQARVAYEEITDLFEVSATYLVATARGHIFNDANKRTALNSALLFLRRNGVQVFDSPELADLTVGAATGEISVSSVADTLRRLYGSAE

Variants of: B1
Details: with eftu1_ecoli tufA
MRHISPEELIALHDANISRYGGLPGMSDPGRAEAIIGRVQARVAYEEITDLFEVSATYLVATAGGHIFNDANKRTALNSALLFLRRNGVQVFDSPELADLTVGAATGEISVSSVADTLRRLYGSAE [R64G] was tested, and the “effect of a mutation on the interaction” value was “disrupting interaction strength”.
